Patent US5789216A, “Cloning and expression of human GMP synthetase, its use in screening for inhibitors of human GMP synthetase and inhibitors of human GMP synthetase” (Syntex (U.S.A.) Inc., priority 1995, dated 1998)
Read-outs that look alike come from different tables or passages of the source.

Experiments:
lymphocyte = conditions: can be blocked by exogenous guanosine; cited from earlier work
IMP dehydrogenase = conditions: cited from earlier work
[1] = system: transplant rejection and rheumatoid arthritis; conditions: recent clinical trials; cited from earlier work
[2] = system: GMP synthetase from Ehrlich ascites cells; conditions: cited from earlier work
[3] = Spectrophotometric-coupled assay of Spector (rate of AMP production; specific activity of enzyme preparations); type: biochemical
Text: The medium will usually be a salt medium such as normal saline, phosphate buffer, or phosphate buffered saline containing additives well known to those skilled in the art and commercially available from a number of suppliers such as GIBCO and Hyclone. The cultured cells are then homogenized under conventional conditions such as, for example, sonication, freeze-thawing, and hypotonic lysis, and the cytosolic fraction is obtained by centrifugation and recovery of the supernatant. Differential salt fractionation, using, for example, ammonium sulfate, is employed to separate the GMP synthetase-richprotein fraction. Salt is then removed by one of a variety of known methods such as gel filtration, dialysis and the like. The desalted protein fraction is then subjected to anion exchange chromatography. […] Fractions showing GMP-synthetase activity are further subjected to hydrophobic interaction chromatography and a second purification via anion exchange chromatography. […] The assay measures the rate of production of AMP by GMP synthetase by coupling it to the oxidation of NADH via the auxiliary enzymes AMP kinase, pyruvate kinase and lactate dehydrogenase.
This assay measured the rate of AMP production by GMP synthetase, and the level of AMP is measured through the activity of three auxiliary enzymes. […] This rate is referred to as background rate.

[4] = partially purified, approximately 50-fold, human fibroblast cells; cited from earlier work
[5] = purified enzyme, repeated purifications or single preparation

## COc1c(C)c2c(c(O)c1C/C=C(\C)CCC(=O)O)C(=O)OC2 [mycophenolic acid]
lymphocyte
  inhibition of lymphocyte proliferation, correlated with lowering of the intracellular pool of guanine nucleotides: inhibition of lymphocyte proliferation
IMP dehydrogenase
  inhibitor of IMP dehydrogenase: potent inhibitor
[1]
  effective in treatment of transplant rejection and rheumatoid arthritis: effective

## O=P(O)(O)OP(=O)(O)O [pyrophosphate]
[2]
  inhibition of the enzyme by its reaction product: inhibition

## human GMP synthetase: purified human GMP synthetase from A3.01 cells, single Coomassie blue-staining band at 75 kDa
[3]; Mono Q pool, purified from A3.01 cells
  specific activity: 3.0 μmol AMP/min-mg
[3]; [5]
  specific activity: 2.5-4.0 μmol AMP produced/min/mg

## partially purified preparation from human fibroblast cells: GMP synthetase from human fibroblasts, purified approximately 50-fold by ammonium sulfate fractionation and gel filtration
[4]
  specific activity: 5990 pmoles guanine compound produced/min/mg

## recombinant human GMP synthetase: baculoviral expressed human GMP synthetase purified from Sf-9 cells
[3]; [5]
  specific activity: 3.0-4.4 μmol AMP produced/min/mg
[3]; purified enzyme, repeated purifications or single preparation, listed as purified protein
  specific activity: 4.4 μmol AMP produced/min/mg
